Data: publication PMC9640981, “Plant vernalization proteins contain unusual PHD superdomains without histone H3 binding activity” (The Journal of Biological Chemistry, 2022)

Biological target: Arabidopsis thaliana (At) OBE1_(193-372), PHD superdomain of OBERON 1 (A. thaliana) (UniProt Q9S736)
Test: ITC; 25 °C, iTC 200; 25 mM Tris pH 8, 150 mM NaCl, 1 mM DTT; 19 injections of 2 μl of 0.25 to 1 mM peptide into 50 μM protein

A Kd of 1900 nM was found for “H3K4me2 (1–15) histone H3 tail peptide (from UniProt P68431 2-16)” in this work.
